The text below walks through data of patent US7153676B1, “Transacylases of the paclitaxel biosynthetic pathway” (priority 1999, dated 2006).

Several values for one entry are separate records, joined by “and”; a condition that tells them apart may be missing. Equal entries are not always repeated.

In series [1] the target is T1, taxadienol acetyl transacylase (TAX1) (Taxus cuspidata, UniProt Q9M6F0).
T1 construct: Full-length insert fragments of the relevant plasmids are excised and subcloned in-frame into the expression vector pCWori+; made in house; host or cells: E. coli JM109 (pCWori+)
T1 sequence (Q9M6F0 1-439): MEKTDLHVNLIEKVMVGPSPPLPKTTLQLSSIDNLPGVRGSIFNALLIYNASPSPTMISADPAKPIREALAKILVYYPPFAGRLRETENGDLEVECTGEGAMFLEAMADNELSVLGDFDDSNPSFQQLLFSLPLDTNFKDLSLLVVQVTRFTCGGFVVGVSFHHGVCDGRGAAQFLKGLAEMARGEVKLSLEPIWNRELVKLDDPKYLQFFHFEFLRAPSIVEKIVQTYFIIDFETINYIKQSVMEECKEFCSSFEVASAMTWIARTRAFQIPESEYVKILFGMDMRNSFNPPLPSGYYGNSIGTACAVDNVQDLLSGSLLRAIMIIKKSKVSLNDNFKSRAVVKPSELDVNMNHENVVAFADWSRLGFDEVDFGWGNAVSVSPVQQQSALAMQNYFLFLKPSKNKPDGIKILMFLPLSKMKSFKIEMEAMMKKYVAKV
In words: recombinant TAX1 expressed in E. coli JM109, taxadienol acetyl transacylase assay. The note with it: cell-free extract, radiochemical analysis. It counts as biochemical. The protocol:
To determine the identity of the putative taxadienol acetyl transacylase, TAX1 (SEQ ID NO: 28), TAX2 (SEQ ID NO: 26), and TAX6 (SEQ ID NO: 45) were subcloned in-frame into the expression vector pCWori+ (Barnes, Methods Enzymol. 272:3–14, 1996) and expressed in E. coli JM109 cells. The transformed bacteria were cultured and induced with isopropyl β-D-thiogalactoside (IPTG), and cell-free extracts were prepared and evaluated for taxadienol acetyl transacylase activity using the previously developed assay procedures (Walker et al., Arch. Biochem. Biophys. 364:273–279, 1999). Clone TAX1 (corresponding directly to Probe 1) expressed high levels of taxadienol acetyl transacylase activity (20% conversion of substrate to product), as determined by radiochemical analysis; the product of this recombinant enzyme was confirmed as taxadienyl-5α-yl acetate by gas chromatography-mass spectrometry (GC-MS) (FIGS. 5A–5G). […] Neither of the recombinant proteins expressed from TAX1 (SEQ ID NO: 28) or TAX2 (SEQ ID NO: 26) was capable of acetylating the advanced paclitaxel precursor 10-deacetyl baccatin III to baccatin III. […]

In series [2] the target is T2, 10-deacetylbaccatin III-10-O-acetyl transferase (TAX6) (Taxus cuspidata, UniProt Q9M6E2).
T2 construct: to amplify the putative full-length acetyl transferase gene and incorporate NdeI and XbaI restriction sites; made in house; host or cells: E. coli JM109 (pCWori+)
T2 sequence (Q9M6E2 1-440): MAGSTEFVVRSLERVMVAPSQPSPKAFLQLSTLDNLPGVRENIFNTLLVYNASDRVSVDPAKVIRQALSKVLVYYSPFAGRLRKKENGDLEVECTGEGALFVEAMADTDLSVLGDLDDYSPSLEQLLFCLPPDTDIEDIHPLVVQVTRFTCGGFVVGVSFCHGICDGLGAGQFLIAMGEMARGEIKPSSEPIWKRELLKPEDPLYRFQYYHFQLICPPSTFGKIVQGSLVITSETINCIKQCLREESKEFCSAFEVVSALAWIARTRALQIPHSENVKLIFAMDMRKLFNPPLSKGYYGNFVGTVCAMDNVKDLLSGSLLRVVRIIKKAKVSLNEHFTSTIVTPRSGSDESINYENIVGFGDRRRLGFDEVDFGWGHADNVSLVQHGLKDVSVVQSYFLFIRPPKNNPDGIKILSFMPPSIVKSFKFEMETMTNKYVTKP
It counts as biochemical. How it is done: For the enzyme preparation, E. coli cells transformed with the pCWori+ vector harboring the putative DBAT gene were grown overnight at 37° C. in 5 mL Luria-Bertani medium supplemented with ampicillin, and 1 mL of this inoculum was added to and grown in 100 mL Terrific Broth culture medium (6 g bacto-tryptone, Difco Laboratories, Spark, Md., 12 g yeast extract, EM Science, Cherryhill, N.J., and 2 mL gycerol in 500 mL water) supplemented with 1 mM IPTG, 1 mM thiamine HCl and 50 μg ampicillin/mL. After 24 hours, the bacteria were harvested by centrifugation, resuspended in 20 mL of assay buffer (25 mM Mopso, pH 7.4) and then disrupted by sonication at 0–4° C. The resulting homogenate was centrifuged at 15,000 g to remove debris, and a 1 mL aliquot of the supernatant was incubated with 10-deacetylbaccatin III (400 μM) and [2-^3H]acetyl coenzyme A (0.45μCi, 400 μM) for 1 hour at 31° C. The reaction mixture was extracted with ether and the solvent concentrated in vacuo. The crude product (pooled from five such assays) was purified by silica gel thin-layer chromatography (TLC; 70:30 ethyl acetate:hexane).
The activity of TAX6 (SEQ ID NO: 45) was assayed under standard conditions described in Walker et al., Arch. Biochem. Biophys.

B1: TAX1: full-length clone, SEQ ID NO: 27/28; encodes Taxus taxadienol acetyl transacylase (protein)
chain: T1 sequence (Q9M6F0 1-439)
For B1, the “taxadienol acetyl transacylase activity (conversion of substrate to product)” value in series [1] is 20%.

B2: TAX6: full-length clone, SEQ ID NO: 44/45; 10-deacetylbaccatin III-10-O-acetyl transferase (protein, listed as Taxus cuspidata)
chain: T2 sequence (Q9M6E2 1-440)
For B2, in series [2], the “optimum pH” value was 7.5; the “pH at half-maximal velocities” value is 6.4 and 7.8.
